Changes are numbered by the printed parent chain.

B1: B1-G3 (VHH)
VHH: EVQVVESGGGLVQPGGSLRLSCVASMPSGISFSNRGMAWYRQAPGKQRELVAAIDSAGSTRYQDSVKGRFTISRDNAKNTVFLQMNSLKPEDTAVYYCNQPAFKAWGQGTQVTVSS
B2: B2-E2 (VHH)
VHH: EVQLVESGGGLVQPGESLRLSCVASGFPSGFTFSDYQMYWYRQAPGKERELVAIISNDGLRKTYADSVKGRFTISRDNAKNTMFLQMNSLKPEDTAVYVCNVRRANRDDWGQGTQVTVSS
B3: B4-C11 (VHH)
VHH: QVQLVESGGGLVQAGGSLRLSCAASGSTFSNVVAGWYRQAPGKQRELVAGISNIGDTRYADSVKGRFTISRDNAKKAVYLQMNSLKPEDTAVYYCYAKYWARDYWGQGTQVTVSS
B4: B3-H7 (VHH)
VHH: B3 VHH with Q1E, L4V, F29A, S30I, V32S, A77T, P87S
B5: B1-H9 (VHH)
VHH: B3 VHH with Q1E, G10D, N31S, V32T, V33I, A77T
B6: B2-F10 (VHH)
VHH: QVQLVESGGGLVQAGGSLRLSCGASGSAVSITLMAWYRQAPGKQRELVAGISNIGDTNYVDSVKDRFTISRINAKNAMYLQMNSLKPEDTAVYYCFAQDWGGHHYWGQGTQVTVSS
B7: B4-D3 (VHH)
VHH: QLQLVESGGGLVQPGGSLRLSCVASGASGISFSNRGMAWYRQAPGKQRELVAAIDSAGSPAYAGSVKGRFTISRDNAKNTVFLQMNSLKPEDTAVYYCNQPRFNLWGLGTQVTVSS
B8: B1-G8 (VHH)
VHH: QVQLVESGGGLVQTGDSLRLSCVAPGISFSNRGMAWYRQAPGKQRELVAAIDSAGSQRYAGSVKDRFTISRDNAKNTVFLQMNSLKPEDTAVYYCNQPRFNLWGQGTQVTVSS
B9: B3-C11 (VHH)
VHH: EVQLVESGGGLVQAGGSLRLSCFVSGSTFSASLMGWYRQAPGKERELVAGISNIGNTVYADSAKGRFTISRDGAKNTVHLQMNALKPEDTAVYYCYATVPRAAWGQGTQVTVSS
B10: B2-A6 (VHH)
VHH: B9 VHH with E1Q, V2L

For the assay, the target named is BSA (UniProt P02769). Put plainly: ELISA, BSA coated (control), E. coli supernatant, anti-VHH-HRP.
Sequence of BSA (P02769 25-607 limits assumed): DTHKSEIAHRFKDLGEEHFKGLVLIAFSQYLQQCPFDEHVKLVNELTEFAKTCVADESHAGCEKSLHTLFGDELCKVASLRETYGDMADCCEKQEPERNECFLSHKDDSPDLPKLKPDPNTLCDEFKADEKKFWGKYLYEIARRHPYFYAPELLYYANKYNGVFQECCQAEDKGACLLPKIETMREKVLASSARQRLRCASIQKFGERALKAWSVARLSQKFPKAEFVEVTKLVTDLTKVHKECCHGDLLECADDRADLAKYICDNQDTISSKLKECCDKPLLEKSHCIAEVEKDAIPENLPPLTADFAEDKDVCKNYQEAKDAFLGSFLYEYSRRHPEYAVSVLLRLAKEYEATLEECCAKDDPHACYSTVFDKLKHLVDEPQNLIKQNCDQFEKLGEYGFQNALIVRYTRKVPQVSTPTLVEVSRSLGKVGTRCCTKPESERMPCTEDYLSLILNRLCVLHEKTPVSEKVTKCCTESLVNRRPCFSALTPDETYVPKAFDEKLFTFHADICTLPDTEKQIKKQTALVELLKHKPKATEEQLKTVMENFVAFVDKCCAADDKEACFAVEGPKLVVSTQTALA
Turning to B1, the OD Value Obtained after Binding to BSA came out at 0.067 OD 450 nm.
B2 gave an OD Value Obtained after Binding to BSA of 0.07 OD 450 nm.
Turning to B3, the OD Value Obtained after Binding to BSA amounted to 0.071 OD 450 nm.
Turning to B4, the OD Value Obtained after Binding to BSA stood at 0.056 OD 450 nm.
B5 yielded an OD Value Obtained after Binding to BSA of 0.058 OD 450 nm.
Molecule B6 gave an OD Value Obtained after Binding to BSA of 0.063 OD 450 nm.
Molecule B7 gave an OD Value Obtained after Binding to BSA of 0.059 OD 450 nm.
In the case of B8, the OD Value Obtained after Binding to BSA amounted to 0.065 OD 450 nm.
For B9, the OD Value Obtained after Binding to BSA is 0.071 OD 450 nm.
With B10 the figure was 0.049 OD 450 nm.

(Values after US20240425575A1.)
